Results as given in paper PMC12402098, “YTHDF3 recognizes DNA N6-methyladenine and recruits ALKBH1 for 6mA removal from genomic DNA” (The EMBO Journal, 2025).
Residue numbers refer to the chain shown, from its start.

Assays:
[1] = biological target: T1, YTHDF3-His (UniProt Q7Z739 1-585); assay: native gel or EMSA; recombinant ALKBH1 and increasing recombinant YTHDF3 with biotin-labeled 6mA-dsDNA oligos, 30 °C 20 min, 2% glutaraldehyde on ice 15 min, 5% nondenaturing gel; details: both partners purified
T1 construct: YTHDF3 inserted into pET 26b vector; pET26b would give a C-terminal His tag (surmise); also called recombinant YTHDF3; wild-type YTHDF3; source: E. coli BL21 (DE3), purified (His-tag protein purification kit); also coexpressed with ALKBH1 in E. coli, in lysate
T1 sequence (looked up): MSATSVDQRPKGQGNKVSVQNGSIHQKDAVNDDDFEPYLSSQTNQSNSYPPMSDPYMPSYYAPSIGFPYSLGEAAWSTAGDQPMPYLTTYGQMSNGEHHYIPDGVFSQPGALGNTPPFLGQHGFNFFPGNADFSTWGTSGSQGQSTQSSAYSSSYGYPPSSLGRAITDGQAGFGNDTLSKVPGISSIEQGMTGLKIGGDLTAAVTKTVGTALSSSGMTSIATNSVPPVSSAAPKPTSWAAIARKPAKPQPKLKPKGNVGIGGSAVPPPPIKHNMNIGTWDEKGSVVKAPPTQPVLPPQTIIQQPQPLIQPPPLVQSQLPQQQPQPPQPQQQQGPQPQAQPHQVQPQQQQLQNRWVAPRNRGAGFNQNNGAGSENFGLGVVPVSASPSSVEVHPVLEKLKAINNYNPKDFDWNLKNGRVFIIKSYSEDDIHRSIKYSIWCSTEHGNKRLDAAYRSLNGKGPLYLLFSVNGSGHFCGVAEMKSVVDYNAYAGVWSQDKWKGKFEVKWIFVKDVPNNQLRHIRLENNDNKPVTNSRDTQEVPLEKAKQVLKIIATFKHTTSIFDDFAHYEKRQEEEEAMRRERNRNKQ

[2] = biological target: T2, YTHDF3-His MT6mA (W438R/W492R) (UniProt Q7Z739 1-585, W438R | W492R); assay: pull-down; GST pull-down: recombinant YTHDF3-His proteins incubated with recombinant ALKBH1-GST protein beads at 4 °C for 1 h, washed three times, eluted with reduced L-glutathione, western blot; details: both partners purified
T2 construct: YTHDF3 with W438R/W492R in the YTH domain, in pET 26b vector; also called YTHDF3-MT6mA-His; YTHDF3 W438R/W492R mutant; source: E. coli BL21 (DE3), purified (His-tag protein purification kit)
T2 sequence (looked up): T1 sequence (looked up) with W438R, W492R

[3] = biological target: T3, YTHDF3 wild type (UniProt Q7Z739 1-585); assay: EMSA; SPR: 1x HBS-EP+, biotin-DNA on SA chip (~500 RU), 30 ul/min; EMSA: LightShift kit, 30 C 20 min, then 2% glutaraldehyde on ice 15 min, 5% native gel; pull-down:; details: protein: recombinant, tags: His
T3 sequence: T1 sequence (looked up)

[4] = biological target: T3, YTHDF3 wild type; assay: EMSA, pull-down; SPR: 1x HBS-EP+, biotin-DNA on SA chip (~500 RU), 30 ul/min; EMSA: LightShift kit, 30 C 20 min, then 2% glutaraldehyde on ice 15 min, 5% native gel; pull-down:; details: protein: recombinant, tags: His
[5] = biological target: T4, ALKBH1;YTHDF3 wild type (Homo sapiens?;Homo sapiens?, UniProt Q13686;Q7Z739 1-389;1-585, |); assay: pull-down; YTHDF3 increases ALKBH1 binding; SPR: 1x HBS-EP+, biotin-DNA on SA chip (~500 RU), 30 ul/min; EMSA: LightShift kit, 30 C 20 min, then 2% glutaraldehyde on ice 15 min, 5% native gel; pull-down:; details: protein: recombinant;recombinant
T4 sequence 1: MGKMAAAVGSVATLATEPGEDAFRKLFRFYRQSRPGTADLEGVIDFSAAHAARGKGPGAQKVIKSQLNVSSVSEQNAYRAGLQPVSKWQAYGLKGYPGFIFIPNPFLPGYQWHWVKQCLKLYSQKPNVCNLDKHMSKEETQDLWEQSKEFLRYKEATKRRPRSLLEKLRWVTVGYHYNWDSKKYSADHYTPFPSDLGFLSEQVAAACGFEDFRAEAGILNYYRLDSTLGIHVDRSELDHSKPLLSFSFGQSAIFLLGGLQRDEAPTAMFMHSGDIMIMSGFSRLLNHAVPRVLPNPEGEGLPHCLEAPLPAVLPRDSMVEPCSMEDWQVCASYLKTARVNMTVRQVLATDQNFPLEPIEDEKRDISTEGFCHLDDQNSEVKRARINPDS
T4 sequence 2: T1 sequence (looked up)

[6] = label: 3' biotin strand 1, duplex with bulge of unpaired nt in strand 1 around 6mA
[7] = label: 3' biotin strand 1, duplex with internal mismatch bubble around 6mA

B1: ALKBH1-GST (enzyme, UniProt Q13686 1-389, looked up)
chain: T4 sequence 1
notes: ALKBH1 inserted into pGEX vector; it would add GST at the N-terminus (surmise). 'Recombinant ALKBH1' of EMSA, DNA pull-down and demethylase assays may be this protein or ALKBH1-His; also called recombinant ALKBH1; A1; source: E. coli BL21 (DE3), purified (glutathione Sepharose; on beads or eluted with reduced L-glutathione)
**Q.** Which results are given for B1?
**A.** binding result [1]: binds; binding result [2]: binds

**Q.** Does CGUCUCGGACUCGGACUGCU (ssRNA, N6-methyladenosine at A9) [ss-m6A-oligo] bind ([3]; label: 5' biotin)?
**A.** binds

**Q.** Does CCCGGUUCGAUUCCCGG (ssRNA, N1-methyladenosine at A10) [tRNA-m1A-oligo] bind ([3]; label: 3' biotin)?
**A.** no binding

B2: Bulge-6mA (mixed)
DNA 1: AACTTCGTGCAGGCATGGGATCTTGTCTACT
DNA 2: AGTAGACACATGCCTGCACGAAGTT
modifications: N6-methyl-dA at A20 of strand 1
**Q.** Does B2 bind [4, 6]?
**A.** binds

**Q.** Does B2 bind [5, 6]?
**A.** binds

B3: Bubble-6mA (mixed)
DNA 1: B2 DNA 1
DNA 2: AGTAGACAGTCGATCATGCCTGCACGAAGTT
modifications: N6-methyl-dA at A20 of strand 1
**Q.** Which results are given for B3?
**A.** binding result [4, 7]: binds; binding result [5, 7]: binds

**Q.** Does AACTTCGTGCAGGCATGGGATCTTGTCTACT (ssDNA, N6-methyl-dA at A20) [ss-6mA] bind ([4]; label: 3' biotin)?
**A.** binds

**Q.** Does AACTTCGTGCAGGCATGGGATCTTGTCTACT (ssDNA, N6-methyl-dA at A20) [ss-6mA] bind ([5]; label: 3' biotin)?
**A.** binds
